According to paper PMC9176643 (bioRxiv, 2022):

Biological target: SARS-CoV Urbani RBD (SARS-CoV Urbani, UniProt P59594)
Experiment: ELISA

B1: S2X324 mAb (antibody, V domains shown)
VH: QITLKESGPTLVKPTQTLTLTCTFSGFSVTTSGVGVGWIRQPPGKALEYLALIYWDDDKRYSTSLKSRLTITKDTSKNQVVLTMTNMDPVDTATYYCARHTIPSIFDYWGQGILVTVSS
VL: QPVLTQPASVSGSPGQSITISCTATSSDVGNYNYVSWYQHHPGKAPKLMIYEVSNRPSGVSNRFSGSKSGNTASLTISGLQAEDEADYYCSSYTSSSLLFGGGTKLTVL
Question: Does B1 bind?
Answer: Result: no binding
